Source: patent US20090175860A1 (Novartis, published 2009)

Assays:
[1] = target: rhesus c-Met on 4MBr-5 cells (rhesus); assay: cell-based or functional assay
[2] = target: T1, full length human c-Met on cells (human, UniProt P08581 25-1390); assay: cell-based or functional assay
[3] = target: rhesus c-Met on 4MBr-5 cells (rhesus); assay: cell-based or functional assay; remark: listed apart in the source
[4] = target: T1, full length human c-Met on cells; assay: cell-based or functional assay; remark: listed apart in the source
[5] = target: rhesus c-Met on 4MBr-5 cells (rhesus); assay: cell-based or functional assay; remark: listed apart in the source
[6] = target: T1, full length human c-Met on cells; assay: cell-based or functional assay; remark: listed apart in the source
[7] = target: T1, full length human c-Met on cells; assay: cell-based or functional assay; remark: listed apart in the source
recombinant human c-Met [8] = target: T2, recombinant human c-Met (human, UniProt P08581 25-932, limits assumed); assay: SPR (BIAcore), Fab on immobilised human c-Met
T2 construct: Soluble recombinant protein: immobilised on the CM5 chip in Biacore, in solution in the equilibrium titration; The precursor is cleaved into disulfide-linked alpha and beta subunits; also called Hepatocyte Growth Factor Receptor
T2 sequence (P08581 25-932 limits assumed): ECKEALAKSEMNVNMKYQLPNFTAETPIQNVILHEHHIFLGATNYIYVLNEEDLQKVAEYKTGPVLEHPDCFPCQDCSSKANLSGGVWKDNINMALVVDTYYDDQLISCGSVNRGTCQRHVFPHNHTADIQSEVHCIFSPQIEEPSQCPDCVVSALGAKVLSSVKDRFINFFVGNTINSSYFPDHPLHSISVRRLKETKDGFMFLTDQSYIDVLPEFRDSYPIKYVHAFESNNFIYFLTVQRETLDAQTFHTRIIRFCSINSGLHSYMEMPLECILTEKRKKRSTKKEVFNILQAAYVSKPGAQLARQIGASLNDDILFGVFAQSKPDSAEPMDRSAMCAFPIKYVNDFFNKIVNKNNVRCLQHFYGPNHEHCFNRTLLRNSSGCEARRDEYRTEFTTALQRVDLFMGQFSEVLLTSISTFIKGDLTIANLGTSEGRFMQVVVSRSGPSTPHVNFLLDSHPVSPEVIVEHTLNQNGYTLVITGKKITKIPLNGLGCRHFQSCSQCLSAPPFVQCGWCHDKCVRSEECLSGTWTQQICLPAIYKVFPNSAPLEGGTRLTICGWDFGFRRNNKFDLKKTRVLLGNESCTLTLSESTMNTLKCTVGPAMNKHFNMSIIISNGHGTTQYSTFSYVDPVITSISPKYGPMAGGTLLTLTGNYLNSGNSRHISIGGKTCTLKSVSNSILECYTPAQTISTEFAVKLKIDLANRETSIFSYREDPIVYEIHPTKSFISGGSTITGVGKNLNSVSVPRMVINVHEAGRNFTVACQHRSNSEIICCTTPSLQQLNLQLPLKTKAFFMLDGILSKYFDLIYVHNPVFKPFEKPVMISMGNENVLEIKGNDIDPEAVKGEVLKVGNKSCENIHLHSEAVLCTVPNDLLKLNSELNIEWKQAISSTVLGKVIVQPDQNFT
Description: (§1) Using these clones, kinetic SPR analysis is performed on a CM5 chip (Biacore, Sweden) which had been coated with a density of ˜400 RU of either recombinant human c-Met, in 10 mM Na-acetate pH 4.5 using standard EDC-NHS amine coupling chemistry. […] PBS (136 mM NaCl, 2.7 mM KCl, 10 mM Na2HPO4 , 1.76 mM KH2PO4 pH 7.4) is used as the running buffer. The Fab preparations are applied in concentration series of 16-500 nM at a flow rate of 20 μl/min. Association phase is set to 60 s and dissociation phase to 120 s.

[9] = target: T1, full length human c-Met on cells; assay: flow cytometry, Fab titration on GTL-16 cells
Description: (§2) In order to further characterize the anti-c-Met antibodies, the affinity to full length human and cynomolgus c-Met is determined. GTL16, CHO cells overexpressing cynomolgus c-Met or rhesus 4 MBr-5 cells are washed, trypsinised, and suspended in PBS containing 3% FCS (3% FCS/PBS) at 4-C. 2-5×10⁵ cells/sample are resuspended in 140 μl of 3% FCS//PBS containing 5 μg/ml of purified anti-cMet Fabs or serial dilutions thereof. As a positive control 5 μg/ml of DO24 (mouse IgG2a), anti-human c-Met is used. The cells are incubated for 30-60 minutes at 4° C. before being pelleted by centrifugation for 2 min at 2000 rpm (716 g) at 4° C. and washed in 200 μl of in chilled 3% FCS/PBS. The cells are again pelleted by centrifugation and the PBS gently removed. Cells are resuspended in 100 μl of goat anti-human IgG (H+L) PE conjugated (Jackson Cat No. 109-116-088) diluted 1:200 in 3% FCS/0.02% NaN₃/PBS; For the positive control goat anti-mouse IgG (H+L)-PE conjugated (Jackson Cat No. 115-116-146) diluted 1:200 in 3% FCS/PBS is used. Samples are incubated in the dark for 30-60 min at 4° C. Following centrifugation and washing in 200 μl of 3% FCS/0.02%/NaN₃/PBS the cells are resuspended in 100 μl of 3% FCS/PBS and assayed using FACS-array or FACS-Calibur.

[10] = target: T1, full length human c-Met on cells; assay: flow cytometry, Fab on GTL-16 cells
Description: as §2

recombinant human c-Met [11] = target: T2, recombinant human c-Met; assay: SPR (BIAcore), c-Met amine-coupled on CM5 chip, Fab 16-500 nM as analyte
Description: as §1

[12] = target: T3, rhesus c-Met on 4MBr-5 cells (rhesus); assay: flow cytometry, Fab titration on rhesus 4MBr-5 cells
T3 construct: whole, on cells
Description: as §2

[13] = target: T4, cynomolgus c-Met on CHO cells (cynomolgus, UniProt A0A2K5UM36 25-1381, The natural precursor is cleaved into disulfide-linked alpha and beta subunits. It is given here as one mature chain, following the entry's CHAIN feature.); assay: flow cytometry, Fab on CHO-cyno c-Met cells
T4 construct: also called cyno c-Met; CHO-cMet cyno
T4 sequence (A0A2K5UM36 entry or part of it limits assumed): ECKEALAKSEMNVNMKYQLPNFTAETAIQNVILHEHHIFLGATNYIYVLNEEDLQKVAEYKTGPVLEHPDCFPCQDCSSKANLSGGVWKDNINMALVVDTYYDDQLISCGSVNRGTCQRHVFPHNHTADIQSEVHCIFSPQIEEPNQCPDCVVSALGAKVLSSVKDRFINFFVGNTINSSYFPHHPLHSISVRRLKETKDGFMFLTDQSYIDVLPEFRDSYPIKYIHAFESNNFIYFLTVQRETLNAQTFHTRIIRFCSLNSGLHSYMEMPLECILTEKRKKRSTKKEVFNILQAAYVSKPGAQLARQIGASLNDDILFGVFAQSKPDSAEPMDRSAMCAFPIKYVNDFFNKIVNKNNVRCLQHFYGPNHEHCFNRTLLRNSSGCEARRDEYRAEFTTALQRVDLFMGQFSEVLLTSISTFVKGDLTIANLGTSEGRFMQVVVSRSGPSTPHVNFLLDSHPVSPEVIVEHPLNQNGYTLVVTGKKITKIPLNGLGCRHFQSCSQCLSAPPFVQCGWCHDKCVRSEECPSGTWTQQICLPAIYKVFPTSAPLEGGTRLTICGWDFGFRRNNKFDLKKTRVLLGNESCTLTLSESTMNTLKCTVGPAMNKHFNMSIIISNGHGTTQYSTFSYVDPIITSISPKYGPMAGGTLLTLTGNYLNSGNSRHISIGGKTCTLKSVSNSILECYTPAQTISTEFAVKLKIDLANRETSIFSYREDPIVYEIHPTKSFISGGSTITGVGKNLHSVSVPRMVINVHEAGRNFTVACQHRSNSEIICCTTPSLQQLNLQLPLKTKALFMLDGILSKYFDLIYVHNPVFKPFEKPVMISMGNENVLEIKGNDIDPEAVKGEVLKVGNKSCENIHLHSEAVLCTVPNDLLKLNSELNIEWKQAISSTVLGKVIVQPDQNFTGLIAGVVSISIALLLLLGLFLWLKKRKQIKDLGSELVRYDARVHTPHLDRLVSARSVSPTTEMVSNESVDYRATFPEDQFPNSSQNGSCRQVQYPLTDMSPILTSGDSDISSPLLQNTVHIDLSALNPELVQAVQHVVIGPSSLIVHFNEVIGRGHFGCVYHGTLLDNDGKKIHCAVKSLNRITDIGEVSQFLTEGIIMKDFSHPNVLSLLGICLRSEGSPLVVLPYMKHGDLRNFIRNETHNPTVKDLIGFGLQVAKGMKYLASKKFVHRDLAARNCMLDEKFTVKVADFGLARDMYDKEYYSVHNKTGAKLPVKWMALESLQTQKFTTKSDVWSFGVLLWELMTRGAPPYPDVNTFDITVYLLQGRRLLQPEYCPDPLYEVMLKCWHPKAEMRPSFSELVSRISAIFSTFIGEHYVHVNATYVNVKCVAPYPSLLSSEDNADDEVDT
Description: as §2

T1 sequence (P08581 25-1390): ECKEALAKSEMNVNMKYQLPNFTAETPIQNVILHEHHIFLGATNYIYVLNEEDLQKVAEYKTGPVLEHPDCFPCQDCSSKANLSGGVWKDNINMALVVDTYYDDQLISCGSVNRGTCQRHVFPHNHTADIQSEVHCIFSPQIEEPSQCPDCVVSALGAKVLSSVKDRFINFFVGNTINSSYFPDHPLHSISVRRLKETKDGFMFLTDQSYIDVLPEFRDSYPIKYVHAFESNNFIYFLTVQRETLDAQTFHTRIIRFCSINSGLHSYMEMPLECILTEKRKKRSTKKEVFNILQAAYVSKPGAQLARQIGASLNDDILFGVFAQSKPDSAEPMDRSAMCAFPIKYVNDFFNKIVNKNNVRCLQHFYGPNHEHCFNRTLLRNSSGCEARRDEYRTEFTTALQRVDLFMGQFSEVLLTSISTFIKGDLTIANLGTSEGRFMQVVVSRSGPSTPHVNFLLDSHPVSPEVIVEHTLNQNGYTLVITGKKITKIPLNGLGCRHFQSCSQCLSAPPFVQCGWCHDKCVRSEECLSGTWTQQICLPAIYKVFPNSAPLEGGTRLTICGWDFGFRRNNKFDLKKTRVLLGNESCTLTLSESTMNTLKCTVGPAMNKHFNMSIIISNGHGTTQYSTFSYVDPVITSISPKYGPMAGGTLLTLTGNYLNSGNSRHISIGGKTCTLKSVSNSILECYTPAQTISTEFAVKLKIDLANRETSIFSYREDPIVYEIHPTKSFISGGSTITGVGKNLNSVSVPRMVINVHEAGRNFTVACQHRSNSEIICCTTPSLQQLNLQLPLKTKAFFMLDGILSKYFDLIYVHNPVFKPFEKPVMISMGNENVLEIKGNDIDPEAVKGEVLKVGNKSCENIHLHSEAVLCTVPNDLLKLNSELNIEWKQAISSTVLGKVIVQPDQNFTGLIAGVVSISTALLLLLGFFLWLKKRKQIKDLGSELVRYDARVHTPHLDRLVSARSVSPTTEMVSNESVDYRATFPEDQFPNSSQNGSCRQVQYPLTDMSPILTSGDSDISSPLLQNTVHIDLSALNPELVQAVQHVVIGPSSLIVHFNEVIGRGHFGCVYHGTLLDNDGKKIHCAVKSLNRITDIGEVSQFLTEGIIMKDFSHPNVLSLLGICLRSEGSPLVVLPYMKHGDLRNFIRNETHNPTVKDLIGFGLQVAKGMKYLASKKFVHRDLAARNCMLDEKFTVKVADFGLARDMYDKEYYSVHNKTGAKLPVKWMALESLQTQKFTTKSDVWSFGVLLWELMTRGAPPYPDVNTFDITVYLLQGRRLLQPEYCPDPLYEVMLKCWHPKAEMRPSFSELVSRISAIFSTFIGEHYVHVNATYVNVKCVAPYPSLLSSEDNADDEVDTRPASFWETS

Binder	EC50 [nM] Inhibition of HGF driven proliferation 4MBr-5 [1] [nM]	EC50 [nM] Inhibition of HGF driven migration NCI-H441 [2] [nM]	EC50 [nM] 4Mbr-5 Proliferation IgG [3] [nM]	EC50 [nM] NCI-H441 Migration IgG [4] [nM]	EC50 [nM] Inhibition of HGF driven proliferation 4MBr-5 in 10% serum [5] [nM]	EC50 [nM] Inhibition of HGF driven migration NCI-H441 in 1% serum [6] [nM]	EC50 [nM] Inhibition of HGF stimulated c-Met autophosphorylation in A549 [7] [nM]	also measured
04537 in IgG format (antibody, V domains shown) VH: QVQLVQSGAEVKKPGESLKISCKGSGYSFSNYWIGWVRQMPGKGLEWMGFIFPDTSYTRYSPSFQGQVTISADKSISTAYLQWSSLKASDTAMYYCARVKLITDYWGQGTLVTVSS VL: DIELTQPPSVSVAPGQTARISCSGDSLRSYFVSWYQQKPGQAPVLVIYDDDDRPSGIPERFSGSNSGNTATLTISGTQAEDEADYYCASWDTLSDVEVFGGGTKLTVLG	150	0.14	150	0.14	–	–	–	–
04537 (parental anti-cMet Fab antibody) (Fab, V domains shown, carries two C-terminal tags (FLAG and 6xHis)) VH: QVQLVQSGAEVKKPGESLKISCKGSGYSFSNYWIGWVRQMPGKGLEWMGFIFPDTSYTRYSPSFQGQVTISADKSISTAYLQWSSLKASDTAMYYCARVKLITDYWGQGTLVTVSS VL: DIELTQPPSVSVAPGQTARISCSGDSLRSYFVSWYQQKPGQAPVLVIYDDDDRPSGIPERFSGSNSGNTATLTISGTQAEDEADYYCASWDTLSDVEVFGGGTKLTVLG	–	–	–	–	–	–	–	Kd (recombinant human c-Met [8]): 1.7 nM; Kd [9]: 2.6 nM; Kd [10]: 1.5 nM; Kd (recombinant human c-Met [11]): 1.7 nM; Kd [12]: 0.1 nM; Kd [13]: 12.7 nM
04690 (parental anti-cMet Fab antibody) (Fab, V domains shown, carries two C-terminal tags (FLAG and 6xHis)) VH: QVQLQQSGPGLVKPSQTLSLTCAISGDSVSSNSAAWGWIRQSPGRGLEWLGRIYYRSKWVNDYAVSVKSRITINPDTSKNQFSLQLNSVTPEDTAVYYCARQGAVYPGPYGFDVWGQGTLVTVSS VL: DIELTQPPSVSVAPGQTARISCSGDKLGSYFVYWYQQKPGQAPVLVIYDDDNRPSGIPERFSGSNSGNTATLTISGTQAEDEADYYCQSFGISNFYVFGGGTKLTVLG	–	–	–	–	–	–	–	Kd [9]: 1.1 nM; Kd (recombinant human c-Met [11]): 66 nM; Kd [12]: 0.1 nM
04541 in IgG format (antibody, V domains shown) VH: QVQLQESGPGLVKPGETLSLTCTVSGGSISSSSYYWNWIRQAPGKGLEWIGEIYFGWTYYNPSLKGRVTISVDTSKNQFSLKLSSVTAEDTAVYYCARGYEFHGYTTFDYWGQGTLVTVSS VL: DIELTQPPSVSVAPGQTARISCSGDNIGSYYVYWYQQKPGQAPVLVIYDDNDRPSGIPERFSGSNSGNTATLTISGTQAEDEADYYCQSYDFPSIVFGGGTKLTVLG	200	0.27	200	0.27	–	–	–	–
04541 (parental anti-cMet Fab antibody) (Fab, V domains shown, carries two C-terminal tags (FLAG and 6xHis)) VH: QVQLQESGPGLVKPGETLSLTCTVSGGSISSSSYYWNWIRQAPGKGLEWIGEIYFGWTYYNPSLKGRVTISVDTSKNQFSLKLSSVTAEDTAVYYCARGYEFHGYTTFDYWGQGTLVTVSS VL: DIELTQPPSVSVAPGQTARISCSGDNIGSYYVYWYQQKPGQAPVLVIYDDNDRPSGIPERFSGSNSGNTATLTISGTQAEDEADYYCQSYDFPSIVFGGGTKLTVLG	–	–	–	–	–	–	–	Kd (recombinant human c-Met [8]): 2.6 nM; Kd [9]: 0.5 nM; Kd [10]: 1.7 nM; Kd (recombinant human c-Met [11]): 2.6 nM; Kd [12]: 0.1 nM; Kd [13]: 0.6 nM
04536 in IgG format (antibody, V domains shown) VH: QVQLVQSGAEVKKPGASVKVSCKASGYTFTGYYMNWVRQAPGQGLEWMGIINPWTGNTNYAQKFQGRVTMTRDTSISTAYMELSSLRSEDTAVYYCARDPGFFYYTPSDLWGQGTLVTVSS VL: DIELTQPPSVSVAPGQTARISCSGDSIGNKYVHWYQQKPGQAPVLVIYADSDRPSGIPERFSGSNSGNTATLTISGTQAEDEADYYCQAYDSSMLRVFGGGTKLTVLG	4	0.61	4	0.61	–	–	–	–

More lines, main results first:

EC50 [nM] Inhibition of HGF driven proliferation 4MBr-5 [1] [nM]	EC50 [nM] Inhibition of HGF driven migration NCI-H441 [2] [nM]	EC50 [nM] 4Mbr-5 Proliferation IgG [3] [nM]	EC50 [nM] NCI-H441 Migration IgG [4] [nM]	EC50 [nM] Inhibition of HGF driven proliferation 4MBr-5 in 10% serum [5] [nM]	EC50 [nM] Inhibition of HGF driven migration NCI-H441 in 1% serum [6] [nM]	EC50 [nM] Inhibition of HGF stimulated c-Met autophosphorylation in A549 [7] [nM]	Binder	also measured
6	1.68	6	1.68	–	–	–	04687 in IgG format (antibody, V domains shown) VH: QVQLVQSGAEVKKPGSSVKVSCKASGGTFSSYAISWVRQAPGQGLEWMGGIDPFGTANYAQKFQGRVTITADESTSTAYMELSSLRSEDTAVYYCARVYQDVWGQGTLVTVSS VL: DIVMTQSPDSLAVSLGERATINCRSSQSILYGINNNFLGWYQQKPGQPPKLLIYWASTRESGVPDRFSGSGSGTDFTLTISSLQAEDVAVYYCQQYYNHPHTFGQGTKVEIKR	–
–	–	–	–	0.5	0.73	0.419	05098 in IgG format (antibody, V domains shown) VH: QVQLVQSGAEVKKPGSSVKVSCKASGGTFSSYAISWVRQAPGQGLEWMGGIDPFGTANYAQKFQGRVTITADESTSTAYMELSSLRSEDTAVYYCARVYQDVWGQGTLVTVSS VL: DIVMTQSPDSLAVSLGERATINCRSSQSILYGINNNFLGWYQQKPGQPPKLLIYWASTRESGVPDRFSGSGSGTDFTLTISSLQAEDVAVYYCLQYSDEPWTFGQGTKVEIKR	–
–	–	–	–	0.13	1.2	0.219	05185 in IgG format (antibody, V domains shown) VH: QVQLVQSGAEVKKPGSSVKVSCKASGGTFSSYAISWVRQAPGQGLEWMGGIDPIMGTEYAQKFQGRVTITADESTSTAYMELSSLRSEDTAVYYCARVYQDVWGQGTLVTVSS VL: DIVMTQSPDSLAVSLGERATINCRSSQSILYGINNNFLGWYQQKPGQPPKLLIYWASTRESGVPDRFSGSGSGTDFTLTISSLQAEDVAVYYCQQYAYEPNTFGQGTKVEIKR	–
–	–	–	–	1.6	0.76	0.166	05097 in IgG format (antibody, V domains shown) VH: QVQLVQSGAEVKKPGSSVKVSCKASGGTFSSYAISWVRQAPGQGLEWMGGIDPFGTANYAQKFQGRVTITADESTSTAYMELSSLRSEDTAVYYCARVYQDVWGQGTLVTVSS VL: DIVMTQSPDSLAVSLGERATINCRSSQSILYGINNNFLGWYQQKPGQPPKLLIYWASTRESGVPDRFSGSGSGTDFTLTISSLQAEDVAVYYCQQYAFGWTFGQGTKVEIKR	–
–	–	–	–	1.3	0.61	0.193	05091 in IgG format (antibody, V domains shown) VH: QVQLVQSGAEVKKPGASVKVSCKASGYTFTGYYMNWVRQAPGQGLEWMGIINPWTGNTNYAQKFQGRVTMTRDTSISTAYMELSSLRSEDTAVYYCARDPGFFYYTPSDLWGQGTLVTVSS VL: DIELTQPPSVSVAPGQTARISCSGDSIGNKYVHWYQQKPGQAPVLVIYADSDRPSGIPERFSGSNSGNTATLTISGTQAEDEADYYCQSYAHYHDIWVFGGGTKLTVLG	–
